Square brackets hold non-standard residues; d marks the D form. Ends that are not written are not given here. Phe(4-NO2) = N[C@@H](Cc1ccc([N+](=O)[O-])cc1)C(=O)O
Tests used:
[1] = target: T1, synthetic peptide corresponding to bovine kappa-CN (bovine); assay: cleavage kinetics of the synthetic peptide at pH 5.6, Lineweaver-Burke plots; binding inferred from KM
T1 construct: Synthetic substrate peptide, free N- and C-terminus as printed; also called Bt kappa-CN; bovine kappa-CN peptide
T1 peptide: HPHPHLS[Phe(4-NO2)]MAI
Procedure: (§1) Two synthetic peptidases, which correspond to the chymosin sensitive regions of camel- and bovine κ-casein (CN), were proteolytically cleaved with bovine and camel chymosin, respectively. KM and kcat were determined at pH 5.6. Additionally, temperature and pH optima of these reactions were measured. The two following synthetic peptides were used in this study:
(§2) The measurement of samples was repeated 3 to 6 times, the Michaelis-Menten and the turnover values were determined from Lineweaver-Burke plots with weighted linear regression of data.

[2] = target: T2, synthetic peptide corresponding to camel kappa-CN (camel); assay: as above
T2 construct: Synthetic substrate peptide, free N- and C-terminus as printed; also called Cd kappa-CN; Cd kappa-CN peptide
T2 peptide: RPRPRPS[Phe(4-NO2)]IAI
Procedure: as §1, §2

substrate binding relative to bovine chymosin [1]: ~2 fold
substrate binding relative to bovine chymosin [2]: ~2 fold
B1: recombinant Camelus dromedarius chymosin (enzyme, UniProt Q9GK11 59-381, looked up)
chain: GKVAREPLTSYLDSQYFGKIYIGTPPQEFTVVFDTGSSDLWVPSIYCKSNVCKNHHRFDPRKSSTFRNLGKPLSIHYGTGSMEGFLGYDTVTVSNIVDPNQTVGLSTEQPGEVFTYSEFDGILGLAYPSLASEYSVPVFDNMMDRHLVARDLFSVYMDRNGQGSMLTLGAIDPSYYTGSLHWVPVTLQQYWQFTVDSVTINGVAVACVGGCQAILDTGTSVLFGPSSDILKIQMAIGATENRYGEFDVNCGNLRSMPTVVFEINGRDYPLSPSAYTSKDQGFCTSGFQGDNNSELWILGDVFIREYYSVFDRANNRVGLAKAI
notes: mature; also called Cd chymosin; camel chymosin
